# Changes are numbered by the printed parent chain.
# B1: GFP-Mec17p (Tetrahymena MEC-17 tagged with GFP, crude enriched soluble fraction from transgenic Tetrahymena) (protein)
# chain: MFKNQLLSLSLRIQKLRLCRQGNQLKVLQKSINQLLFKTQSIDQILQYLQQKKKTHQSILENQNQHIHSIGLVSQLTNQKINKQKNQKAMEFNFIINKLVQLDQQGLGVYIPRASRSKVSSQQEQQLGQVLNTMGERSAIAQGLKQVITNYDKVQGTDQRVYIVAEGRTCQGFLKVGQKNLFYRDMMGNIKEIKPLCVLDFYVHESCQRQGYGKLLFEYMIQCEQTSPEKLAYDRPSPKLIAFLKKHYNLVKYIAQNNNFVVFDQYFRSDASSQNKQNQNTRSYSQPYSDYSSQIPTNYPQQQQQQSNSKSYPYKQENNIDLMQHSSSRNNKEFLNAGRAILSKEEIYKKDNLSQQNIENTLNNINNSQYSTKSQQQQQYQKDYQLDKYENNWGADKNIKKPPFPGQDRQLDKIQQKIQQTERELDVVNQQIIKQRQNLSQDPLTQNHRAQNVYNTNQFGTSPWAQTGFNYYSTSSSNYGNHYTYYKK
# B2: GST-MmMEC-17 (recombinant murine MEC-17 expressed in E. coli as a GST fusion) (protein)
# chain: MEFPFDVDALFPERITVLDQHLRPPARRPGTTTPARVDLQQQIMTIVDELGKASAKAQHLPAPITSALRMQSNRHVIYILKDTSARPAGKGAIIGFLKVGYKKLFVLDDREAHNEVEPLCILDFYIHESVQRHGHGRELFQHMLQKERVEPHQLAIDRPSPKLLKFLNKHYNLETTVPQVNNFVIFEGFFAHQHRPPTSSLRATRHSRAAVADPIPAAPARKLPPKRAEGDIKPYSSSDREFLKVAVEPPWPLNRAPRRATPPAHPPPRSSSLGNSPDRGPLRPFVPEQELLRSLRLCPPHPTARLLLATDPGGSPAQRRRTRGTPWGLVAQSCHYSRHGGFNTSFLGTGNQERKQGEQEAEDRSASEDRVLLLDGSGEEPTQTGAPRAQAPPPQSWTVGGDIMNARVIRNLQERRSTRPW
# What was measured:
# [1] = target: T1, Tetrahymena α-tubulin with non-acetylated K40, from the MEC17-KO strain (as axonemes or as purified tubulin), P41351
# T1 chain: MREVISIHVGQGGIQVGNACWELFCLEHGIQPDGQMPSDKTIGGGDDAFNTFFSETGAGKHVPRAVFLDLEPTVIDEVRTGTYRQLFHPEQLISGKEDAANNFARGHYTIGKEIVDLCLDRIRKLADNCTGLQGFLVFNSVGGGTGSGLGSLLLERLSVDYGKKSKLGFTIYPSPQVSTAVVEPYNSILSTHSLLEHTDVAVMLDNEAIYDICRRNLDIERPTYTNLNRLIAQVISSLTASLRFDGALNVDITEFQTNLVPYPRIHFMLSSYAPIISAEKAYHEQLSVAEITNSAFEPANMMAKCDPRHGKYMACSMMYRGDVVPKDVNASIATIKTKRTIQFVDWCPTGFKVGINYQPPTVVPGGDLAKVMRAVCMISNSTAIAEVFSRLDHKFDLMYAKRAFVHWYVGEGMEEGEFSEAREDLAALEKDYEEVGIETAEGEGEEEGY
# [2] = target: T2, Tetrahymena K40R α-tubulin (axonemes from a K40R Tetrahymena mutant), P41351
# T2 chain: T1 chain with K40R
Protein,"in vitro tubulin acetylation (K40 αTAT) assay on MEC17-KO axonemes, western blot with 6-11 B-1 mAb [1]","in vitro acetylation of R40 (K40R) axonemes, western blot with pan acetyl-K antibodies [2]","in vitro acetylation of K40 axonemes, western blot with pan acetyl-K antibodies [1]","in vitro tubulin acetylation (αTAT) assay on MEC17-KO axonemes with acetyl-CoA, western blot with 6-11 B-1 mAb [1]"
B1,A crude GFP-Mec17p-enriched fraction (obtained from transgenic Tetrahymena) had K40 αTAT activity in vitro that was dependent on the presence of acetyl-CoA,–,–,–
B2,–,failed to acetylate R40 axonemes,GST-MmMEC-17 modified K40 axonemes,"GST-MmMEC-17, but not GST, mediated a robust αTAT activity in vitro"

# Reference: patent publication US20130121989
